Results taken from patent publication US20120283182A1.
Ends that are not written are not given here.

How the values were obtained:
[1] = target: 'd' subunit of F1Fo ATP synthase (dF1Fo) (rat) (UniProt P31399); test: co-IP with anti-dF1Fo antisera from NCM mitochondria; Western blot densitometry
[2] = target: 'd' subunit of F1Fo ATP synthase (dF1Fo) (rat) (UniProt P31399); test: cell-based or functional assay
[3] = tested on: adult rat cardiac ventricular F1Fo ATPase holo-enzyme
[4] = target: delta protein kinase C (δPKC) (rat) (UniProt P09215); test: PKC overlay assay: inhibition of δPKC binding to blotted dF1Fo by the peptide; densitometry
[5] = target: delta protein kinase C (δPKC) (rat) (UniProt P09215); test: PKC overlay assay: facilitation of δPKC binding to blotted dF1Fo by the peptide; densitometry

Chain of 'd' subunit of F1Fo ATP synthase (dF1Fo) (rat) (P31399 2-161 limits assumed): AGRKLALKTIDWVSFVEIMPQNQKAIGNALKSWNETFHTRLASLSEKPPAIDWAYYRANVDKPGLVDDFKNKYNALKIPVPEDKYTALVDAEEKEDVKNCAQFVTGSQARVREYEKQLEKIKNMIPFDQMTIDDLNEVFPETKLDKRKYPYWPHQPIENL

delta protein kinase C (δPKC) (from UniProt P09215 1-673) (enzyme)
fold increase of δPKC-dF1Fo co-IP over 3 nM 4-β PMA-induced levels [1]: 3.4 fold | further inhibition of F1Fo ATPase activity in NCM mitochondria (high glucose plus hypoxia) [2]: 28% | further inhibition of F1Fo ATPase activity in NCMs (high glucose plus hypoxia) [2]: 29% | inhibition of F1Fo ATPase activity in NCM mitochondria (high glucose) [2]: 56.1% | inhibition of F1Fo ATPase activity in NCM mitochondria (hypoxia) [2]: 10 fold | inhibition of F1Fo ATPase activity in NCMs (high glucose) [2]: 54% | inhibition of F1Fo ATPase activity in rat heart mitochondria (ischemia/reperfusion) [2]: 2.2 fold | inhibition of baseline F1Fo ATPase activity in NCMs (4 hr hypoxia) [2]: 75.1%

recombinant δPKC purified from sf9 cells
oligomycin-sensitive F1Fo ATPase activity, in vitro [3]: recombinant δPKC profoundly inhibited F1Fo ATPase activity in the presence or absence of the PKC activators DG and PS

B1: δPKC-dF1Fo inhibitor peptide … (peptide)
peptide: AGRKLALKTIDWVSF
modifications: not fully specified
IC50 [4]: 300 µM

B2: δPKC-dF1Fo facilitator peptide … (peptide)
peptide: RVREYEKQLEKIKNMI
EC50 [5]: 300 µM
